How the values were obtained:
[1] = target: T1, IL-1R1 on human cells (primary human chondrocytes; human whole blood) (human, UniProt P14778 18-569); test: cell-based or functional assay
T1 sequence (looked up): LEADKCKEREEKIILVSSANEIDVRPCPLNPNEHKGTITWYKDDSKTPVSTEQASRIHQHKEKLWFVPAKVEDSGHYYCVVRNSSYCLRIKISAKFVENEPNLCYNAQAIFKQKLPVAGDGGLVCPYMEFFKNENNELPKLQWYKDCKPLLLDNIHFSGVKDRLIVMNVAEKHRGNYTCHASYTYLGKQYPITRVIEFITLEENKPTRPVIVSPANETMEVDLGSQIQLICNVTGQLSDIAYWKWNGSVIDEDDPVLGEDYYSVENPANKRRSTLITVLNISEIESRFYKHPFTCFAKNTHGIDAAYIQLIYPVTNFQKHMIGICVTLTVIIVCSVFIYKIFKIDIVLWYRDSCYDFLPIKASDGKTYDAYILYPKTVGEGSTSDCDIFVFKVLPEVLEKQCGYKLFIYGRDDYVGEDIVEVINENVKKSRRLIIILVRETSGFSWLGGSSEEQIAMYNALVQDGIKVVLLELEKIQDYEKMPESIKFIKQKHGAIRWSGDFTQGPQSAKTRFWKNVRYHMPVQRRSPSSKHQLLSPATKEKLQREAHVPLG

[2] = target: T1, IL-1R1 on human cells (primary human …); test: cell-based or functional assay; remark: listed apart in the source
[3] = target: T2, ovalbumin (negative control) (UniProt P01012 2-386); test: ELISA, plates coated with the protein, anti-human Fc-HRP detection
T2 construct: also called OA
T2 sequence (looked up): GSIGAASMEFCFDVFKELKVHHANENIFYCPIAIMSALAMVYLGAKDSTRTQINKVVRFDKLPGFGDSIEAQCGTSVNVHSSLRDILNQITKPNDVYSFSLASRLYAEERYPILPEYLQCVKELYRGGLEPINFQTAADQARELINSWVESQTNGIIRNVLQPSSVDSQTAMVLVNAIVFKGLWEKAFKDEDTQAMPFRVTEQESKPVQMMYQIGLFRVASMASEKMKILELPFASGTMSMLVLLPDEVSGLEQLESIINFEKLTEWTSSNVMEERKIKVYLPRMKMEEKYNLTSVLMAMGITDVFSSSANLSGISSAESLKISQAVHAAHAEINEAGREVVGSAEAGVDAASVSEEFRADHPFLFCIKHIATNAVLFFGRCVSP
Source text: (§1) The antibodies were subjected to a preliminary epitope sorting experiment. ELISA plates were coated with human sIL-1R1 (1+2+3 domain), truncated human sIL-1R1 (1+2 domain), rat sIL-1R1, human sIL-1R type II, and ovalbumin (negative control). Antibody binding was detected with a horseradish peroxidase-conjugated anti-Human Fc antibody (Pierce Chemical Co., Rockford, Ill.). A check mark (√) in Table 2 represents a positive result for binding; “X” represents a negative result.

[4] = target: T3, rat sIL-1R1 (1+2+3 domain) (rat, UniProt Q02955 20-338); test: as above
T3 construct: extracellular domain
T3 sequence (looked up): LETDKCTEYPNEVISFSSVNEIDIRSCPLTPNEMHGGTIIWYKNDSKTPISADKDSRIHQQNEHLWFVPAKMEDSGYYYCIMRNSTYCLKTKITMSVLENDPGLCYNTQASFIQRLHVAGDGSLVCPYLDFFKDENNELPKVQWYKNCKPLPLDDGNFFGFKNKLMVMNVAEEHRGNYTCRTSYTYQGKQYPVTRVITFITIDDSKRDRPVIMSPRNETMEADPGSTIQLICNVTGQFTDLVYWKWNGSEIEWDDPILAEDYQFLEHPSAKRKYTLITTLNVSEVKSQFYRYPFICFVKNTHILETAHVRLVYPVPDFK
Source text: as §1

[5] = target: T4, human sIL-1R type II (1+2+3 domain) (human, UniProt P27930 14-343); test: as above
T4 construct: extracellular domain; also called Hu sIL-1RII; human type II receptor
T4 sequence (looked up): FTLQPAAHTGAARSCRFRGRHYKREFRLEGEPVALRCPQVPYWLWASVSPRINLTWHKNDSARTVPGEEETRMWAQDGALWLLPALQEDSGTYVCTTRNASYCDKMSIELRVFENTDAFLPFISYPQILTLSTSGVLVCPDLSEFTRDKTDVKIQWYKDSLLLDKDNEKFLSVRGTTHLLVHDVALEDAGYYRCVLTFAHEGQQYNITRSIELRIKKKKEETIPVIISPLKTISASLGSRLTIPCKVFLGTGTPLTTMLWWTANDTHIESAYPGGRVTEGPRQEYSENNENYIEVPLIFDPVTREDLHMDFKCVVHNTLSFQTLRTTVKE
Source text: as §1

[6] = target: T1, IL-1R1 on human cells (primary human …); test: cell-based or functional assay; remark: listed apart in the source

B1: 15C4 human anti-IL-1R1 monoclonal antibody (purified from hybridoma supernatant) (antibody, V domains shown)
VH: EVQLMQSGAEVKKPGESLKISCKGSGYSFSFHWIAWVRQMPGKGLEWMGIIHPGASDTRYSPSFQGQVTISADNSNSATYLQWSSLKASDTAMYFCARQRELDYFDYWGQGTLVTVSS
VL: EIVLTQSPDFQSVTPKEKVTITCRASQSIGSSLHWYQQKPDQSPKLLIKYASQSFSGVPSRFSGSGSGTDFTLTINSLEAEDAAAYYCHQSSSLPLTFGGGTKVEIK
notes: Human IgG kappa from HuMab mice
For B1, the “IC50, inhibition of IL-1β induced IL-6 production in primary human chondrocytes (Table 4B)” value [1] was 0.007 nM, the “IC50, inhibition of IL-1-induced IL-6 production in human whole blood, composite (pooled data)” value [2] was 0.126 nM and the “IC50, inhibition of IL-1-induced IL-6 production in human whole blood, donor 1047” value [2] was 0.126 nM. The “IC50, inhibition of IL-1-induced IL-6 production in human whole blood, donor 1319” value [2] was 0.111 nM, the binding result [3] was “no binding” and the binding result [4] was “no binding”. The binding result [5] was “no binding” and the “IC50, inhibition of IL-1β induced IL-6 production in primary human chondrocytes (Table 4A)” value [6] was 0.016 nM.

— US20040097712A1 (Amgen, published 2004)
